Data published in publication PMC7474084.

Target: Echovirus 30 (E30) mature virion (F-particle) (Echovirus 30)
Experiment: SPR; BIAcore T100; […]; PBS with 0.05% Tween-20, 25 °C; global fit

Substance	Kd
human FcRn, extracellular domain (from UniProt P55899 24-297; P61769 21-119) (receptor)	2000 nM
human CD55, extracellular domain (receptor)	2000 nM
